Measured values taken from publication PMC11754657.

Key:
[1] = molecular target: rabbit skeletal muscle filamentous actin (rabbit) (UniProt P68135)
[2] = molecular target: rabbit skeletal muscle filamentous actin (rabbit) (UniProt P68135); remark: listed apart in the source

| K ATPase: F-actin at half-maximal activation of the steady-state ATPase (NADH-coupled assay, 20 °C, 2 mM MgATP, 50 mM KCl) [1] | kcat: extrapolated maximum rate of the F-actin activated steady-state ATPase (NADH-coupled assay, 20 °C) [1] | velocity of actin filaments in the in vitro gliding filament assay (motor domain held by anti-GFP, 10 mM KCl, 2 mM ATP, 30 °C) [2] | Substance |
| --- | --- | --- | --- |
| 114 µM | 0.87 s⁻¹ | 216 nm/s | jordan (p.D1647G) MYO15A motor domain complex M15-2IQ:ELC:RLC (1:1:1) (from UniProt P60661 1-151) |
| 29.1 µM | 5.8 s⁻¹ | 473 nm/s | wild-type MYO15A motor domain complex M15-2IQ:ELC:RLC (1:1:1) (from UniProt P60661 1-151) |
